Assay results: patent US20240417476A1 (ATYR PHARMA, published 2024)
Ends that are not written are not given here.

What was measured:
[1] = target: T1, NRP2a_scan 1 peptide (biotinylated) (human, also: biotin-conjugated, site not given here); experiment: peptide ELISA
T1 peptide: VDIPEIHEREGY

[2] = target: T2, mNRP2A peptide (biotinylated) (mouse, biotin-conjugated, site not stated); experiment: BLI, peptide on sensor
T2 construct: also called mouse NRP2 isoform a peptide

[3] = target: T3, NRP2b peptide (biotinylated) (human, biotin-conjugated, site not stated); experiment: BLI, peptide on sensor
T3 construct: also called NRP2b isoform specific peptide
T3 peptide: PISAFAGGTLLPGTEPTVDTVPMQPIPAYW

[4] = target: T4, NRP2a_scan 2 peptide (biotinylated) (human, also: biotin-conjugated, site not given here); experiment: BLI, peptide on sensor;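 further: octet RED96e biolayer interferometry with biotin-conjugated NRP2 peptides spanning isoform-specific regions (human and mouse) loaded on biosensors, antibodies applied at 50 nM, association read over 300 s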
T4 peptide: PEIHEREGYEDE

[5] = target: T5, NRP2a_scan 3 peptide (biotinylated) (human, also: biotin-conjugated, site not given here); experiment: BLI, peptide on sensor;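 further: octet RED96e biolayer interferometry with biotin-conjugated NRP2 peptides spanning isoform-specific regions (human and mouse) loaded on biosensors, antibodies applied at 50 nM, association read over 300 s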
T5 peptide: HEREGYEDEIDD

[6] = target: T6, NRP2a_scan 4 peptide (biotinylated) (human, also: biotin-conjugated, site not given here); experiment: BLI, peptide on sensor;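 further: octet RED96e biolayer interferometry with biotin-conjugated NRP2 peptides spanning isoform-specific regions (human and mouse) loaded on biosensors, antibodies applied at 50 nM, association read over 300 s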
T6 peptide: EGYEDEIDDEYE

[7] = target: T7, NRP2a_scan 5 peptide (biotinylated) (human, also: biotin-conjugated, site not given here); experiment: BLI, peptide on sensor;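 further: octet RED96e biolayer interferometry with biotin-conjugated NRP2 peptides spanning isoform-specific regions (human and mouse) loaded on biosensors, antibodies applied at 50 nM, association read over 300 s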
T7 peptide: EDEIDDEYEVDW

[8] = target: T8, NRP2a_scan 6 peptide (biotinylated) (human, also: biotin-conjugated, site not given here); experiment: BLI, peptide on sensor
T8 peptide: IDDEYEVDWSNS

[9] = target: T9, NRP2a_scan 7 peptide (biotinylated) (human, also: biotin-conjugated, site not given here); experiment: BLI, peptide on sensor
T9 peptide: EYEVDWSNSSSA

[10] = target: T10, Mid-NRP2A peptide (biotinylated) (human, biotin-conjugated, site not stated); experiment: BLI, peptide on sensor
T10 peptide: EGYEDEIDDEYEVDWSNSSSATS

[11] = target: T11, Mid-mNRP2A peptide (biotinylated) (mouse, biotin-conjugated, site not stated); experiment: BLI, peptide on sensor
T11 peptide: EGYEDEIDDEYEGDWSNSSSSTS

[12] = target: mNRP2b peptide (biotinylated) (mouse, biotin-conjugated, site not stated); experiment: BLI, peptide on sensor
[13] = target: T12, Short NRP2A peptide (biotinylated) (human, biotin-conjugated, site not stated); experiment: BLI, peptide on sensor, 50 nM antibody
[14] = target: T13, NRP2A peptide (biotinylated) (human, biotin-conjugated, site not stated); experiment: BLI, isoform peptide on sensor, 50 nM antibody
T13 construct: also called NPR2A; NRP2a specific peptide

[15] = target: T14, Human NRP2a v2 (926aa) in pBiT2.1-C with C-terminal split NanoLuc tag, expressed in Expi293 cells (human, UniProt O60462 23-931); experiment: CCL21-induced NRP2a/CCR7 receptor dimerization (NanoBiT, Example 7); mark beside the epitope box
T14 construct: cDNA Origene RCC220706, isoform 2; also called pBiT2.1-C-NRP2v2 (isoform 2); NRP2 v2; not shown: vector-encoded spacer and small split NanoLuc fragment (pBiT2.1-C)

[16] = target: T15, human NRP2b expressed on Expi293F cells (human); experiment: flow cytometry, Expi293F cells transfected with the target, fluorescent anti-mouse secondary; MFI signal relative to mock-transfected cells
T15 construct: also called full length NRP2b
T15 chain: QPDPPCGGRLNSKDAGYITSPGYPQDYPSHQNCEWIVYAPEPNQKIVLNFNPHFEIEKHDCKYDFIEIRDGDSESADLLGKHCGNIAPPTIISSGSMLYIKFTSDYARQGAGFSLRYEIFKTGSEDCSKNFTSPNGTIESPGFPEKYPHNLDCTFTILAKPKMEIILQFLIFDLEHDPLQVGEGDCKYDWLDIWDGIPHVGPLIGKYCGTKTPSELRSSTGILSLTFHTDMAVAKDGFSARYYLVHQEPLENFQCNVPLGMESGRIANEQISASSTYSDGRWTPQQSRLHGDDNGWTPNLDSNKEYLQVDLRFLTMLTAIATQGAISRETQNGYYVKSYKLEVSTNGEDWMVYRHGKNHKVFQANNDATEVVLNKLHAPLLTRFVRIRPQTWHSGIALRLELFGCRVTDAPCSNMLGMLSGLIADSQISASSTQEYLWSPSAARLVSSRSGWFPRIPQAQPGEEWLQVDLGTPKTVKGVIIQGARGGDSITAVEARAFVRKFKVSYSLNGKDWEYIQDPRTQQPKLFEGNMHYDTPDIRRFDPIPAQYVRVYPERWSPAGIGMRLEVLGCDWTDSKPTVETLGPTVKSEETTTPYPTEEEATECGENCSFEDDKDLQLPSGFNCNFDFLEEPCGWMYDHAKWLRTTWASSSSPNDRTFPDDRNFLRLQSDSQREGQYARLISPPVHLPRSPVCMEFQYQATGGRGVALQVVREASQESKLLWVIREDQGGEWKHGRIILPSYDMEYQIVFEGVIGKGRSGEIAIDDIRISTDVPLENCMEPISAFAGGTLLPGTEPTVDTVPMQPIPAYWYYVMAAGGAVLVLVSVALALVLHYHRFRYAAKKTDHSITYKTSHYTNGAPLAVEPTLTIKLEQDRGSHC
Protocol: (§1) Signal to noise was calculated as the staining intensity of transfected cells compared to an un-transfected ‘mock’ population.

NRP2v3 = target: T16, NRP2v3; experiment: as above
T16 construct: not the NanoLuc-tagged construct m33; also called human NRP2 v3 expressed on Expi293F cells; NRP2a v3
T16 chain: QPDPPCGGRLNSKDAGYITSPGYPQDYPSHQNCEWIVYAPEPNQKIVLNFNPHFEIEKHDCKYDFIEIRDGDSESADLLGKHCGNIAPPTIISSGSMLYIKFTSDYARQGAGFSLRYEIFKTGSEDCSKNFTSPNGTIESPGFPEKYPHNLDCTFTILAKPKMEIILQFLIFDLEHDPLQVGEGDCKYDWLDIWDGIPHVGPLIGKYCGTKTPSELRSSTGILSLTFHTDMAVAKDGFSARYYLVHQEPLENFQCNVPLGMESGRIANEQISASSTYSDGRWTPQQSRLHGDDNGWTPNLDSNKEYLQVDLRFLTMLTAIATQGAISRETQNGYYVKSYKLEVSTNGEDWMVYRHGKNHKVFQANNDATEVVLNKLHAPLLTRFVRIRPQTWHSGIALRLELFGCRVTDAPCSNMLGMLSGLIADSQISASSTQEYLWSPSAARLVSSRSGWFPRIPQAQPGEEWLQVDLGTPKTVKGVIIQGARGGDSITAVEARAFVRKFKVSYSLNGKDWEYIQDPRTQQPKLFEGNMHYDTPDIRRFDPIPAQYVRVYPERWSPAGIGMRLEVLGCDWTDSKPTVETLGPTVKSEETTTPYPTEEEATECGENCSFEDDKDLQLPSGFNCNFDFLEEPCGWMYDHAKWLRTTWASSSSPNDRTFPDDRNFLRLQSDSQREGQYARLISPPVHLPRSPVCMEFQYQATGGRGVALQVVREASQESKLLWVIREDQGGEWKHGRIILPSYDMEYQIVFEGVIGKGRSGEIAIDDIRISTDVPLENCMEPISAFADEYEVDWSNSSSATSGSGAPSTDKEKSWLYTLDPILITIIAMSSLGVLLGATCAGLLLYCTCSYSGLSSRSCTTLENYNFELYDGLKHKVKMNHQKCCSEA
Protocol: as §1

[17] = target: T3, NRP2b peptide (biotinylated); experiment: peptide ELISA
[18] = target: T1, NRP2a_scan 1 peptide (biotinylated); experiment: BLI, peptide on sensor, 50 nM antibody
[19] = target: T4, NRP2a_scan 2 peptide (biotinylated); experiment: BLI, peptide on sensor, 50 nM antibody
[20] = target: T12, Short NRP2A peptide (biotinylated); experiment: BLI, peptide on sensor
Protocol: (§2) Biolayer interferometry (BLI) experiments were carried out on an Octet RED96e instrument (Sartorius) to further characterize antibody affinities to the NRP2 peptides screened above. Antibodies were epitope mapped using peptides that span the NRP2a isoform specific region; antibodies were also tested for reactivity to an NRP2b isoform specific peptide and cross-reactivity to mNRP2a and mNRP2b peptides (see Table E2 for peptide sequences).
(§3) Antibodies and peptides were diluted in 1×PBS, 0.1% BSA, 0.02% Tween 20, pH 7.4. […] The biosensors were then dipped into 50 nM solutions of each antibody and read for 300s. The biosensors were regenerated in 10 mM glycine, pH 1.5 in between cycles of different antibodies.

[21] = target: T1, NRP2a_scan 1 peptide (biotinylated); experiment: BLI, peptide on sensor
Protocol: as §2, §3

[22] = target: T3, NRP2b peptide (biotinylated); experiment: BLI, peptide on sensor
Protocol: as §2, §3

[23] = target: T7, NRP2a_scan 5 peptide (biotinylated); experiment: BLI, peptide on sensor, 50 nM antibody
[24] = target: T8, NRP2a_scan 6 peptide (biotinylated); experiment: BLI, peptide on sensor, 50 nM antibody
[25] = target: T10, Mid-NRP2A peptide (biotinylated); experiment: BLI, peptide on sensor, 50 nM antibody
[26] = target: T11, Mid-mNRP2A peptide (biotinylated); experiment: BLI, peptide on sensor, 50 nM antibody
[27] = target: T2, mNRP2A peptide (biotinylated); experiment: BLI, peptide on sensor, 50 nM antibody

mNRP2b peptide (biotinylated) (mouse, biotin-conjugated, site not stated), sequence (peptide, as listed by the source): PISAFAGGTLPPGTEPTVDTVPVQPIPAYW

B1: aNRP2-400v2 (antibody, V domains shown)
VH: EVQLQESGAELARPGASVKLSCKASGYTFRSYGISWVKQRTGQGLEWIGEIYPRSGNTYYDENFKGRATLTADKSSSTAFMELRSLTSEDSAVYFCARSSITAVVAIPYYYAMDYWGQGTSVTVSS
VL: DIQMTQTTSSLSASLGDRVTISCSASQGISNYLNWYQQKPDGSVKLLIYYTSSLHSGVPSRFSGSGSGTDYSLTISNLEPEDIATYYCQQYSKLPHTFGGGTKLELK
notes: Mouse monoclonal
no binding: binding result [16] | binding result (NRP2v3)
binds: binding result [1] | binding result [13] | binding result [14]
> 50%: blocks receptor dimerization [15]
no binding (tested: 50 nM): binding result [2] | binding result [3] | binding result [4] | binding result [5] | binding result [6] | binding result [7] | binding result [8] | binding result [9] | binding result [10] | binding result [11] | binding result [12]

B2: aNRP2-404v2 (antibody, V domains shown)
VH: EVQLQQSGPELVKPGASVKISCKASGYTFTDYNMHWVKQSHGKSLEWIGYIYPYNGDSGYNQRFKSEATLTVDISSSTAYMELRSLTSDDSAVYYCARLGRGYWGQGTTLTVSS
VL: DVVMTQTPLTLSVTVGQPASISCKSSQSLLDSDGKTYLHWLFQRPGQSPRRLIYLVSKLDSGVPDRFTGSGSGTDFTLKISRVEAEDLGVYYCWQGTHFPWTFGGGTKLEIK
notes: Mouse monoclonal
< 50%: blocks receptor dimerization [15]
binds: binding result [13] | binding result [18] | binding result [19] | binding result [14]
no binding (tested: <3x blank): binding result [17]
no binding: binding result [16] | binding result (NRP2v3)
no binding (tested: 50 nM): binding result [5] | binding result [6] | binding result [7] | binding result [8] | binding result [9] | binding result [10] | binding result [12]

B3: aNRP2-401v2 (antibody, V domains shown)
VH: EVQLQESGGGLVKPGGSLKLSCAASGFTFSDYGMHWVRQAPEKGLEWVATISRDINTVYYADTVKGRFTISRDNAKNTLFLQVTSLRSEDTAMYYCTRGGYTDYWGQGTTLTVSS
VL: DIVMTQTPLSLPVSLGDQASISCRSSQSLVHSNGNTYLYWYLQRPGQSPKLLIYKVSNRFSGVPDRFSGSGSGTDFTLKISRVEAEDLGVYFCSQSTHVLTFGGGTKLEIK
notes: Mouse monoclonal
binds: binding result [23] | binding result [24] | binding result [25] | binding result [26] | binding result [27] | binding result [14]
no binding (tested: 50 nM): binding result [20] | binding result [21] | binding result [4] | binding result [5] | binding result [6] | binding result [9] | binding result [22] | binding result [12]
